Results reported in patent US20140302021A1 (ONCLAVE THERAPEUTICS, published 2014).
No end group written: not given here.

Biological target: T1, CGGHEDT (SEQ ID NO: 17) conjugated to Ovalbumin (also: conjugated to ovalbumin)
T1 construct: Peptide-carrier conjugate used as the ELISA antigen
T1 peptide: CGGHEDT
Assay: competitive binding ELISA
Text: A competitive binding ELISA has been established to measure binding of humanized 2A4 to its antigen (CGGHEDT (SEQ ID NO: 17) when conjugated to Ovalbumin) compared to the reference standard.

B1: humanized 2A4 antibody (IgG1, kappa isotype version of murine 2A4) (antibody, V domains shown)
VH: EVQLVESGGGLVQPGGSLRLSCAASGFTFNTYAMYWIRQAPGKGLEWVARIRSKSNNYAIYYADSVKDRFTISRDDSKNSLYLQMNSLKTEDTAVYYCARPYSDSFAYWGQGTLVTVSS
VL: DVVMTQSPLSLPVTPGEPASISCRSSQSLVHSTGNTYLHWYLQKPGQSPQLLIYKVSNRFSGVPDRFSGSGSGTDFTLKISRVEAEDVGVYYCSQSTHVPFTFGGGTKVEIKR
modifications: N-linked glycosylation at the consensus sequence, positions 299 to 301
notes: Human IgG1 of G1m(3) allotype, kappa; also called h2A4; humanized 2A4 drug substance
B1: binds.
